Experimental findings from patent US20220348609A1 (University of Washington, published 2022) are described below.

Test [1] deals with T1, human αvβ6 integrin, soluble protein (biotinylated for yeast display; in solution for BLI) (human, UniProt P06756 31-992; P18564 22-707, limits assumed, biotinylated in the yeast display experiments (site not stated)).
T1 construct: also called avb6; alpha(v) beta (6) integrin
The experiment in a line: binding assay not named.

Test [2] addresses T2, αiibβ3 integrin on stably transfected K562 cells (UniProt P08514 32-1039; P05106 27-788, limits assumed).
T2 construct: whole, on cells; also called aiibb3; alpha (iib) beta (3) integrin
The experiment in a line: cell surface binding on stably transfected K562 cells.

The target of test [3] is T3, αvβ3 integrin on stably transfected K562 cells (UniProt P06756 31-1048; P05106 27-788, limits assumed).
T3 construct: whole, on cells; also called avb3; alpha(v) beta (3) integrin
The description is as above.

Test [4] deals with T4, αvβ5 integrin on stably transfected K562 cells (UniProt P06756 31-1048; P18084 24-799, limits assumed).
T4 construct: whole, on cells; also called avb5; alpha(v) beta (5) integrin
Described as above.

The target in test [5] is T5, αvβ1 integrin on stably transfected K562 cells (UniProt P06756 31-1048; P05556 21-798, limits assumed).
T5 construct: whole, on cells; also called avb1; alpha(v) beta (1) integrin
Described as above.

The target in test [6] is T6, α8β1 integrin on stably transfected K562 cells (UniProt P53708 39-1063; P05556 21-798, limits assumed).
T6 construct: whole, on cells; also called a8b1; alpha 8 beta 1
The description is as above.

In test [7] the target is T7, α5β1 integrin on stably transfected K562 cells (UniProt P08648 42-1049; P05556 21-798, limits assumed).
T7 construct: whole, on cells; also called a5b1; alpha 5 beta 1
The test is described as above.

The target of test [8] is T1, human αvβ6 integrin, soluble protein …. In words: BLI titration of purified protein against αvβ6 (FIG. 2f,g); BLI, purified BP2 against αvβ6. The method, then:
(§1) Data was collected on an Octet™ RED96 (Forte Bio) and processed using the instrument's software. His Tagged protein binders were immobilized on Ni-NTA octet sensors. The tips are then dipped into wells containing different concentrations of αᵥβ₆. Association and dissociation steps were recorded for 900 s and 1200 s respectively. An empty sensor with no loaded binding protein was included to discard any non-specific binding of αᵥβ₆ to the octet tip.

For test [9] the target is unchanged. In words: BLI (Octet RED96), His-tagged binder on Ni-NTA sensor, αvβ6 in solution. The protocol: as §1
(BLI is a label-free optical method that tracks binding on a fibre tip over time.)

For test [10], the target named is T8, human αvβ6 integrin on cells (A431 carcinoma cells; K562 cells stably transfected with αvβ6) (human, UniProt P06756 31-1048; P18564 22-788).
T8 construct: whole, on cells; Endogenous on A431 cells, transfected on K562 cells; also called αvβ6(+) cells; K562 avb6 transfected clone A4
The experiment in a line: cell surface binding assay on K562 cells stably expressing αvβ6/αvβ8; reference αvβ8.

Test [11] deals with T8, human αvβ6 integrin on cells (A431 …). The experiment in a line: cell-based or functional assay.

T1 sequence (P06756 31-992 limits assumed, chain 1 of 2): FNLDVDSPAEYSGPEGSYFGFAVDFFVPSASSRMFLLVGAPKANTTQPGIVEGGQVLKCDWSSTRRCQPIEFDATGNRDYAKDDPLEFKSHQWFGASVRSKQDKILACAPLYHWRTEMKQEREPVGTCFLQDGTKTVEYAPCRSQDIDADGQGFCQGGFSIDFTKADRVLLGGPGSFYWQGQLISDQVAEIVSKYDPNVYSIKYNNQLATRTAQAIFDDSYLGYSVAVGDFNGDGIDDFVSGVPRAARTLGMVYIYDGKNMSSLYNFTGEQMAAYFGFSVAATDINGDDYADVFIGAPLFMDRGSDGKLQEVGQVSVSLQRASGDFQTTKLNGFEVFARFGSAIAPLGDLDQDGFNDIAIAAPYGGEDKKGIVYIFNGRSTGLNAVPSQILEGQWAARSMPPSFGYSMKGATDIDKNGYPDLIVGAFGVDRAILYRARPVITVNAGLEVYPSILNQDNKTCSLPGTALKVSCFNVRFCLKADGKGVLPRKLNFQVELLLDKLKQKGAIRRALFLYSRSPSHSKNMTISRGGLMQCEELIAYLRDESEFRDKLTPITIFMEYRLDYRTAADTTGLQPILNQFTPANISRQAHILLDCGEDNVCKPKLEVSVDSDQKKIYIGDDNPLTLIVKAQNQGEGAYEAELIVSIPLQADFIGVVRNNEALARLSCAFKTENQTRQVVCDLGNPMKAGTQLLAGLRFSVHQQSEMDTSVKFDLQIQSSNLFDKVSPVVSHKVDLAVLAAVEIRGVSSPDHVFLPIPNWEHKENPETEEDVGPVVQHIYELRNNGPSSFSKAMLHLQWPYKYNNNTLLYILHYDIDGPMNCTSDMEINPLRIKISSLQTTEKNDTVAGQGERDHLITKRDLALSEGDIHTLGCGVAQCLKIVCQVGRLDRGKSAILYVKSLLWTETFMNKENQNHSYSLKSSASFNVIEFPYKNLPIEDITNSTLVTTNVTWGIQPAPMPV
T1 sequence (P18564 22-707 limits assumed, chain 2 of 2): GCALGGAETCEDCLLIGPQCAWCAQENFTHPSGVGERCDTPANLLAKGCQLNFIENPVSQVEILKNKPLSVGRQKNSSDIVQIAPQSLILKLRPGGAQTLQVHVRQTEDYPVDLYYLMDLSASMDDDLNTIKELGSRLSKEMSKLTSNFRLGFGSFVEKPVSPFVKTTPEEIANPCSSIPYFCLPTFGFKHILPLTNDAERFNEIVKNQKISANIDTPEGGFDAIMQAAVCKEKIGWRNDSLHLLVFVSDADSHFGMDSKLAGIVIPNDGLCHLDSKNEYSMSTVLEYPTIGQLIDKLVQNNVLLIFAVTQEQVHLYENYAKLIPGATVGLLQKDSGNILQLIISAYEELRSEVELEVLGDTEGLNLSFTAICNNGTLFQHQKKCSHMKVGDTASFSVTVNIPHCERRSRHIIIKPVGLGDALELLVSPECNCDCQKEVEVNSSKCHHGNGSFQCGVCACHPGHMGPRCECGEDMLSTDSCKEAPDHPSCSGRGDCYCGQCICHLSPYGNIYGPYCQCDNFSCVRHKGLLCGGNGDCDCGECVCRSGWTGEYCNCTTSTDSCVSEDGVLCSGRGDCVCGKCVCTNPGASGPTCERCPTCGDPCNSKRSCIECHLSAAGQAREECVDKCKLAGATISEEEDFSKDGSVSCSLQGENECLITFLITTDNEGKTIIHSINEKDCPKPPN
T8 sequence (P06756 31-1048, chain 1 of 2): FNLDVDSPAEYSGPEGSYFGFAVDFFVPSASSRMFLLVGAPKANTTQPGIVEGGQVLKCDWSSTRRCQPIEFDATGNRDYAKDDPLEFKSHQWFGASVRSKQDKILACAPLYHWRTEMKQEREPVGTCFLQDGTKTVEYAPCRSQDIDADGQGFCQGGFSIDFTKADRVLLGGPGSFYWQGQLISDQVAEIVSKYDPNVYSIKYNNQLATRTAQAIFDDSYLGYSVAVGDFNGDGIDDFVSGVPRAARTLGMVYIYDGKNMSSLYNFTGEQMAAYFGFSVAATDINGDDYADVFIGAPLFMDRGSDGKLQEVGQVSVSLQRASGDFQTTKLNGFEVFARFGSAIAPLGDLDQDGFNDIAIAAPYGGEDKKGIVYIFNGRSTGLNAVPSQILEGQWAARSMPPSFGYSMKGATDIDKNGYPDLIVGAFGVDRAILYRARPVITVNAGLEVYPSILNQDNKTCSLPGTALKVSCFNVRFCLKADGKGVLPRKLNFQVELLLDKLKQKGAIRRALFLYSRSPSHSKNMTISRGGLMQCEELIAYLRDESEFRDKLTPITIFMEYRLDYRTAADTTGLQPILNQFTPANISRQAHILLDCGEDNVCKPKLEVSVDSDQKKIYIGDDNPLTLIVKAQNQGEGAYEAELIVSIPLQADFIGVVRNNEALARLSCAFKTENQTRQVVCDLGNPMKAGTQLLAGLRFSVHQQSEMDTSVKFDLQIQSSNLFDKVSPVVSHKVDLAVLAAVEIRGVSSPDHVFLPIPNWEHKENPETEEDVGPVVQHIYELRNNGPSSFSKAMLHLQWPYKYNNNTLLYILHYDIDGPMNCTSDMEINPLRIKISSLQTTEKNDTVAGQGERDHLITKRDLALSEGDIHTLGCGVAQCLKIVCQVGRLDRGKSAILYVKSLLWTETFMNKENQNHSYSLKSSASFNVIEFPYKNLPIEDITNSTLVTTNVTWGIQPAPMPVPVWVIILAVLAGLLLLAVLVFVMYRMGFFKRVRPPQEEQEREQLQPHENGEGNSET
T8 sequence (P18564 22-788, chain 2 of 2): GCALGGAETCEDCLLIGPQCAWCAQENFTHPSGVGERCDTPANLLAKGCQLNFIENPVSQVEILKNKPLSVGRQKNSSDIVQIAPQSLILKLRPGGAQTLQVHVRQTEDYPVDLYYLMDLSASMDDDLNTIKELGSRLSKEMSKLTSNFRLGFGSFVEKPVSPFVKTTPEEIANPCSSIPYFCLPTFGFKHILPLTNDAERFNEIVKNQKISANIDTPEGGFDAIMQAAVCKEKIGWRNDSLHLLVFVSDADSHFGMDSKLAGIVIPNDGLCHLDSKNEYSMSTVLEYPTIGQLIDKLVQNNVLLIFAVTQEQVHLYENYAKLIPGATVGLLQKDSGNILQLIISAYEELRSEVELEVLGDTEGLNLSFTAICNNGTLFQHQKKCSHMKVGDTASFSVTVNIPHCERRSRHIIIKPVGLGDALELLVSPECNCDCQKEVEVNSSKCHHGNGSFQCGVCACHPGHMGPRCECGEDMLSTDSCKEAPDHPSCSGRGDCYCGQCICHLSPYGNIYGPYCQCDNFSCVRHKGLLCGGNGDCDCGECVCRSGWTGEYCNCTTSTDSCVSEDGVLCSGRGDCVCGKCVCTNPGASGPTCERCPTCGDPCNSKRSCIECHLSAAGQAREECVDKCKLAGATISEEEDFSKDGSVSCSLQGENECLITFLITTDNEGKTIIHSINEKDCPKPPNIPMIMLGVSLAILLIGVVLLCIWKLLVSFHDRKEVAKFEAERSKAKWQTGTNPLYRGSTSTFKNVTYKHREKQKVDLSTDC
T5 sequence (P06756 31-1048 limits assumed, chain 1 of 2): as the sequence (P06756 31-1048, chain 1 of 2) above
T5 sequence (P05556 21-798 limits assumed, chain 2 of 2): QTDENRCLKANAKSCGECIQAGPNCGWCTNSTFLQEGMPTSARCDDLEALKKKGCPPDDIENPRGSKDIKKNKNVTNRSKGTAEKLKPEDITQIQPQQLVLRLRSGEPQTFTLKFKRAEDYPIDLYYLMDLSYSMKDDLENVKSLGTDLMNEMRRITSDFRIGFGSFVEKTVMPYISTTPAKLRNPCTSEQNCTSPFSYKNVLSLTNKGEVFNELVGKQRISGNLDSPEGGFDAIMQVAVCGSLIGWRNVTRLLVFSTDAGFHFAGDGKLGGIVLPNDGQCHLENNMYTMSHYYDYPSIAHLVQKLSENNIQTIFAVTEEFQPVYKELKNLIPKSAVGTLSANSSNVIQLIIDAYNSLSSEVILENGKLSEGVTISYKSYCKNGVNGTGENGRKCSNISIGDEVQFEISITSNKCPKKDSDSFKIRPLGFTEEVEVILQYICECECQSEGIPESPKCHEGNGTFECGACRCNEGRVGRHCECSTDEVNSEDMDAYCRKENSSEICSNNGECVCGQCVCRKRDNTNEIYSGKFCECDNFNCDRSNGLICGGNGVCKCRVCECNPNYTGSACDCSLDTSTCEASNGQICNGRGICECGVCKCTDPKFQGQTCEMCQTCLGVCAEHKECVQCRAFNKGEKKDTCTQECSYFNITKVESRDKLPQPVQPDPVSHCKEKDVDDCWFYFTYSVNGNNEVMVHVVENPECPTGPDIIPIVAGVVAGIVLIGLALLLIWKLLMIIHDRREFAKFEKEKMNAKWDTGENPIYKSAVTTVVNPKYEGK
T4 sequence (P06756 31-1048 limits assumed, chain 1 of 2): as the sequence (P06756 31-1048, chain 1 of 2) above
T4 sequence (P18084 24-799 limits assumed, chain 2 of 2): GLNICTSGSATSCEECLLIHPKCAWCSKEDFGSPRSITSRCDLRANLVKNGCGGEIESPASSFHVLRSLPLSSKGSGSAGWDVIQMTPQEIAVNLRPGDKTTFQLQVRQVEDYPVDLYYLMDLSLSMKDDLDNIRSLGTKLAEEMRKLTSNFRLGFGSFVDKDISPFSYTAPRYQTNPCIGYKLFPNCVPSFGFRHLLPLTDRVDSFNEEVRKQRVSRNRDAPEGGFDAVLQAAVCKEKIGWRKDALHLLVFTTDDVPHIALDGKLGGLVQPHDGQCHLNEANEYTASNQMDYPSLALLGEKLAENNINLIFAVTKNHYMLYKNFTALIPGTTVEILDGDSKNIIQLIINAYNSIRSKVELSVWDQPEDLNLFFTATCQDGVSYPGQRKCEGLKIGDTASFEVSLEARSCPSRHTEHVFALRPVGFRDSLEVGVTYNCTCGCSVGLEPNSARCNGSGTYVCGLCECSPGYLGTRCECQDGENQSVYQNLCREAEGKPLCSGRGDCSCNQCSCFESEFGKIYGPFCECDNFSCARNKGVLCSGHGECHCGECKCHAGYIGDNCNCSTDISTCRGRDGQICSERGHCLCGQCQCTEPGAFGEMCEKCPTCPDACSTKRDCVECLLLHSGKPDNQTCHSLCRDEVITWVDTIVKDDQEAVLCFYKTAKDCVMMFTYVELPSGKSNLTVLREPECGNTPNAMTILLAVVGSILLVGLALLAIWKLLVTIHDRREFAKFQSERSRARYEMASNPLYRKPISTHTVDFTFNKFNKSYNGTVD

B1: BP2_disulf with knockout mutation of the RGD to KGE (designed binder)
chain: MTKCVVRFVFKGELAELMLRAVKDHLKKEGPHWNITSTNNGKELVVRGIHESDAKRIAKWVEKRFPRVHTETQCD
notes: if the listing entry starts with Met they are 11 and 13; also called KGE knockout of BP2_disulf
B1: the binding result in [1] was “no binding”.

B2: BP2 (av6_3_A39KG64R) (designed binder)
chain: MAVVRFVFRGDLAELMLRAVKDHLKKEGPHWNITSTNNGKELVVRGIHESDAKRIAKWVEKRFPRVHTETQQD
notes: not shown: C-terminal His tag (pET29b, NdeI/XhoI)
A word on the Kd: it is a measure of binding affinity in units of concentration. Higher therefore signals weaker binding. With B2, the binding result in test [2], in test [3], in [4], in test [5], in test [6] and in test [7] was “no binding (tested: up to 200 nM)” throughout. Also, the Kd in [8] was less than 1 nM; in [9], 0.414 nM. Further, the “fold specificity towards αvβ6 over αvβ8” value in test [10] is greater than 5000 fold. The “IC50 of the block of αvβ6 mediated TGF-β activation, TMLC luciferase reporter co-culture assay” value in test [11] was 151 pM.
